In IntAct's records for PubMed 28065597:

B1: Tyrosine-protein phosphatase non-receptor type 12 (Homo sapiens), Q05209 (parent)
chain: MEQVEILRKFIQRVQAMKSPDHNGEDNFARDFMRLRRLSTKYRTEKIYPTATGEKEENVKKNRYKDILPFDHSRVKLTLKTPSQDSDYINANFIKGVYGPKAYVATQGPLANTVIDFWRMIWEYNVVIIVMACREFEMGRKKCERYWPLYGEDPITFAPFKISCEDEQARTDYFIRTLLLEFQNESRRLYQFHYVNWPDHDVPSSFDSILDMISLMRKYQEHEDVPICIHCSAGCGRTGAICAIDYTWNLLKAGKIPEEFNVFNLIQEMRTQRHSAVQTKEQYELVHRAIAQLFEKQLQLYEIHGAQKIADGVNEINTENMVSSIEPEKQDSPPPKPPRTRSCLVEGDAKEEILQPPEPHPVPPILTPSPPSAFPTVTTVWQDNDRYHPKPVLHMVSSEQHSADLNRNYSKSTELPGKNESTIEQIDKKLERNLSFEIKKVPLQEGPKSFDGNTLLNRGHAIKIKSASPCIADKISKPQELSSDLNVGDTSQNSCVDCSVTQSNKVSVTPPEESQNSDTPPRPDRLPLDEKGHVTWSFHGPENAIPIPDLSEGNSSDINYQTRKTVSLTPSPTTQVETPDLVDHDNTSPLFRTPLSFTNPLHSDDSDSDERNSDGAVTQNKTNISTASATVSAATSTESISTRKVLPMSIARHNIAGTTHSGAEKDVDVSEDSPPPLPERTPESFVLASEHNTPVRSEWSELQSQERSEQKKSEGLITSENEKCDHPAGGIHYEMCIECPPTFSDKREQISENPTEATDIGFGNRCGKPKGPRDPPSEWT
B2: Receptor tyrosine-protein kinase erbB-4 (Homo sapiens), Q15303 (parent)
chain: MKPATGLWVWVSLLVAAGTVQPSDSQSVCAGTENKLSSLSDLEQQYRALRKYYENCEVVMGNLEITSIEHNRDLSFLRSVREVTGYVLVALNQFRYLPLENLRIIRGTKLYEDRYALAIFLNYRKDGNFGLQELGLKNLTEILNGGVYVDQNKFLCYADTIHWQDIVRNPWPSNLTLVSTNGSSGCGRCHKSCTGRCWGPTENHCQTLTRTVCAEQCDGRCYGPYVSDCCHRECAGGCSGPKDTDCFACMNFNDSGACVTQCPQTFVYNPTTFQLEHNFNAKYTYGAFCVKKCPHNFVVDSSSCVRACPSSKMEVEENGIKMCKPCTDICPKACDGIGTGSLMSAQTVDSSNIDKFINCTKINGNLIFLVTGIHGDPYNAIEAIDPEKLNVFRTVREITGFLNIQSWPPNMTDFSVFSNLVTIGGRVLYSGLSLLILKQQGITSLQFQSLKEISAGNIYITDNSNLCYYHTINWTTLFSTINQRIVIRDNRKAENCTAEGMVCNHLCSSDGCWGPGPDQCLSCRRFSRGRICIESCNLYDGEFREFENGSICVECDPQCEKMEDGLLTCHGPGPDNCTKCSHFKDGPNCVEKCPDGLQGANSFIFKYADPDRECHPCHPNCTQGCNGPTSHDCIYYPWTGHSTLPQHARTPLIAAGVIGGLFILVIVGLTFAVYVRRKSIKKKRALRRFLETELVEPLTPSGTAPNQAQLRILKETELKRVKVLGSGAFGTVYKGIWVPEGETVKIPVAIKILNETTGPKANVEFMDEALIMASMDHPHLVRLLGVCLSPTIQLVTQLMPHGCLLEYVHEHKDNIGSQLLLNWCVQIAKGMMYLEERRLVHRDLAARNVLVKSPNHVKITDFGLARLLEGDEKEYNADGGKMPIKWMALECIHYRKFTHQSDVWSYGVTIWELMTFGGKPYDGIPTREIPDLLEKGERLPQPPICTIDVYMVMVKCWMIDADSRPKFKELAAEFSRMARDPQRYLVIQGDDRMKLPSPNDSKFFQNLLDEEDLEDMMDAEEYLVPQAFNIPPPIYTSRARIDSNRSEIGHSPPPAYTPMSGNQFVYRDGGFAAEQGVSVPYRAPTSTIPEAPVAQGATAEIFDDSCCNGTLRKPVAPHVQEDSSTQRYSADPTVFAPERSPRGELDEEGYMTPMRDKPKQEYLNPVEENPFVSRRKNGDLQALDNPEYHNASNGPPKAEDEYVNEPLYLNTFANTLGKAEYLKNNILSMPEKAKKAFDNPDYWNHSLPPRSTLQHPDYLQEYSTKYFYKQNGRIRPIVAENPEYLSEFSLKPGTVLPPPPYRHRNTVV
partner: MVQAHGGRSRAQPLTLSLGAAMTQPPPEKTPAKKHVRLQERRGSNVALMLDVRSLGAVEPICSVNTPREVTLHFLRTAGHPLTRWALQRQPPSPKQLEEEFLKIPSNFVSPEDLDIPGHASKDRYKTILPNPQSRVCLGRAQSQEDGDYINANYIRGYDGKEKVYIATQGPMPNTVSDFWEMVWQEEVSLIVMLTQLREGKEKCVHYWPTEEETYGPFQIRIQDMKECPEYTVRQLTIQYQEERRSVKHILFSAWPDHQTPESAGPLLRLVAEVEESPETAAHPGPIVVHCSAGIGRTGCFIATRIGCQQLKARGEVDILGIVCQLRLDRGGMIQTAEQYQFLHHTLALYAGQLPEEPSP
B3: Receptor-type tyrosine-protein phosphatase R (Homo sapiens), Q15256 (parent)
chain: MRRAVCFPALCLLLNLHAAGCFSGNNDHFLAINQKKSGKPVFIYKHSQDIEKSLDIAPQKIYRHSYHSSSEAQVSKRHQIVNSAFPRPAYDPSLNLLAMDGQDLEVENLPIPAANVIVVTLQMDVNKLNITLLRIFRQGVAAALGLLPQQVHINRLIGKKNSIELFVSPINRKTGISDALPSEEVLRSLNINVLHQSLSQFGITEVSPEKNVLQGQHEADKIWSKEGFYAVVIFLSIFVIIVTCLMILYRLKERFQLSLRQDKEKNQEIHLSPITLQPALSEAKTVHSMVQPEQAPKVLNVVVDPQGRGAPEIKATTATSVCPSPFKMKPIGLQERRGSNVSLTLDMSSLGNIEPFVSIPTPREKVAMEYLQSASRILTRSQLRDVVASSHLLQSEFMEIPMNFVDPKEIDIPRHGTKNRYKTILPNPLSRVCLRPKNVTDSLSTYINANYIRGYSGKEKAFIATQGPMINTVDDFWQMVWQEDSPVIVMITKLKEKNEKCVLYWPEKRGIYGKVEVLVISVNECDNYTIRNLVLKQGSHTQHVKHYWYTSWPDHKTPDSAQPLLQLMLDVEEDRLASQGRGPVVVHCSAGIGRTGCFIATSIGCQQLKEEGVVDALSIVCQLRMDRGGMVQTSEQYEFVHHALCLYESRLSAETVQ
B4: Tyrosine-protein phosphatase non-receptor type 7 (Homo sapiens), P35236 (parent)
chain: B2 partner
B5: Receptor tyrosine-protein kinase erbB-4 (Homo sapiens), Q15303 (parent)
chain: B2 chain
partner: B1 chain
B6: Receptor tyrosine-protein kinase erbB-4 (Homo sapiens), Q15303 (parent)
chain: B2 chain
partner: B3 chain
B7: Macrophage-stimulating protein receptor (Mus musculus), Q62190 (parent)
chain: MGLPLPLLQSSLLLMLLLRLSAASTNLNWQCPRIPYAASRDFSVKYVVPSFSAGGRVQATAAYEDSTNSAVFVATRNHLHVLGPDLQFIENLTTGPIGNPGCQTCASCGPGPHGPPKDTDTLVLVMEPGLPALVSCGSTLQGRCFLHELEPRGKALHLAAPACLFSANNNKPEACTDCVASPLGTRVTVVEQGHASYFYVASSLDPELAASFSPRSVSIRRLKSDTSGFQPGFPSLSVLPKYLASYLIKYVYSFHSGDFVYFLTVQPISVTSPPSALHTRLVRLNAVEPEIGDYRELVLDCHFAPKRRRRGAPEGTQPYPVLQAAHSAPVDAKLAVELSISEGQEVLFGVFVTVKDGGSGMGPNSVVCAFPIYHLNILIEEGVEYCCHSSNSSSLLSRGLDFFQTPSFCPNPPGGEASGPSSRCHYFPLMVHASFTRVDLFNGLLGSVKVTALHVTRLGNVTVAHMGTVDGRVLQVEIARSLNYLLYVSNFSLGSSGQPVHRDVSRLGNDLLFASGDQVFKVPIQGPGCRHFLTCWRCLRAQRFMGCGWCGDRCDRQKECPGSWQQDHCPPEISEFYPHSGPLRGTTRLTLCGSNFYLRPDDVVPEGTHQITVGQSPCRLLPKDSSSPRPGSLKEFIQELECELEPLVTQAVGTTNISLVITNMPAGKHFRVEGISVQEGFSFVEPVLTSIKPDFGPRAGGTYLTLEGQSLSVGTSRAVLVNGTQCRLEQVNEEQILCVTPPGAGTARVPLHLQIGGAEVPGSWTFHYKEDPIVLDISPKCGYSGSHIMIHGQHLTSAWHFTLSFHDGQSTVESRCAGQFVEQQQRRCRLPEYVVRNPQGWATGNLSVWGDGAAGFTLPGFRFLPPPSPLRAGLVELKPEEHSVKVEYVGLGAVADCVTVNMTVGGEVCQHELRGDVVICPLPPSLQLGKDGVPLQVCVDGGCHILSQVVRSSPGRASQRILLIALLVLILLVAVLAVALIFNSRRRKKQLGAHSLSPTTLSDINDTASGAPNHEESSESRDGTSVPLLRTESIRLQDLDRMLLAEVKDVLIPHEQVVIHTDQVIGKGHFGVVYHGEYTDGAQNQTHCAIKSLSRITEVQEVEAFLREGLLMRGLHHPNILALIGIMLPPEGLPRVLLPYMRHGDLLHFIRSPQRNPTVKDLVSFGLQVACGMEYLAEQKFVHRDLAARNCMLDESFTVKVADFGLARGVLDKEYYSVRQHRHARLPVKWMALESLQTYRFTTKSDVWSFGVLLWELLTRGAPPYPHIDPFDLSHFLAQGRRLPQPEYCPDSLYHVMLRCWEADPAARPTFRALVLEVKQVVASLLGDHYVQLTAAYVNVGPRAVDDGSVPPEQVQPSPQHCRSTSKPRPLSEPPLPT
partner: B3 chain
B8: Receptor tyrosine-protein kinase erbB-4 (Homo sapiens), Q15303 (parent)
chain: B2 chain

Variants of: B1
Conditions: with igf1r_human IGF1R
Target sequence in this assay (P08069 whole entry, looked up): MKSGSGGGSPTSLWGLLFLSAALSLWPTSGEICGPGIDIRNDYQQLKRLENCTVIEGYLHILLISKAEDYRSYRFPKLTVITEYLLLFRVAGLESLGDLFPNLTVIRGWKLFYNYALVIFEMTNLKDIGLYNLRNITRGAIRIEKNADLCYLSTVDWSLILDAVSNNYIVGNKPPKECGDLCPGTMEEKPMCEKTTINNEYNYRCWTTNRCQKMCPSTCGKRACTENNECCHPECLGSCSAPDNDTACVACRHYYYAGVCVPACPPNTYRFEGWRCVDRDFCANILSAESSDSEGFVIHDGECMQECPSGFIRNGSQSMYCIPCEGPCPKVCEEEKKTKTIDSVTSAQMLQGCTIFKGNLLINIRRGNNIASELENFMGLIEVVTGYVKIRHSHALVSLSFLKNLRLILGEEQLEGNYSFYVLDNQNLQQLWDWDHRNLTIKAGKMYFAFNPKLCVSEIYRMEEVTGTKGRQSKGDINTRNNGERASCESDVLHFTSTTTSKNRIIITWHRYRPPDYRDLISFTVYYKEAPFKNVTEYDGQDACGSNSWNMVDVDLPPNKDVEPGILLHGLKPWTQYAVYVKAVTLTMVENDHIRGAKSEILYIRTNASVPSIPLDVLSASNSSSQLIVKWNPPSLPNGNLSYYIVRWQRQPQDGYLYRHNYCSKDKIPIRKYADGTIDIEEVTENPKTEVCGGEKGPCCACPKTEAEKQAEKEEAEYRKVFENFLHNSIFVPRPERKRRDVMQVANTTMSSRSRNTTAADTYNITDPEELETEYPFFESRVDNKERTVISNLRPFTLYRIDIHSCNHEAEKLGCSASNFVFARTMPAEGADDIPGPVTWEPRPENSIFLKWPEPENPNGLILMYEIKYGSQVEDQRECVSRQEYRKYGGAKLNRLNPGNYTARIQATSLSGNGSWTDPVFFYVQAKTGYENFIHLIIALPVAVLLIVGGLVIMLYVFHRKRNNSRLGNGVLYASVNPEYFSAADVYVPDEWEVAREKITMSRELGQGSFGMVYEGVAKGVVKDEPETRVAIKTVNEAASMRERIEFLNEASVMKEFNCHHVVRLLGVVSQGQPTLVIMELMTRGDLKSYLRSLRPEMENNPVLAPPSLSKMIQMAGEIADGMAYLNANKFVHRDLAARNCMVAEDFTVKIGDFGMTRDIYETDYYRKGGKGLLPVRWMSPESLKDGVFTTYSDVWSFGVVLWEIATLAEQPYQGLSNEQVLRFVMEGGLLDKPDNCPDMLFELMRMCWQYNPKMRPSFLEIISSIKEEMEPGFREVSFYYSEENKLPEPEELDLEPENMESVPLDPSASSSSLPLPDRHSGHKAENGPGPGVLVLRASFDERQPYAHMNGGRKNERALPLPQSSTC

Variant	effect of a mutation on the interaction
C235S	decreasing interaction
D201A;C235S	with no effect

Variants of: B1
Conditions: with erbb4_human ERBB4, Q15303

Variant	effect of a mutation on the interaction
C231S	with no effect
D199A;C231S	disrupting interaction

Variants of: B1
Conditions: with erbb4_human ERBB4, Q15303
Remark: another data set of the same source

Variant	effect of a mutation on the interaction
C231S	disrupting interaction

Variants of: B1
Conditions: with fgfr2_human FGFR2, P21802
Target sequence in this assay (P21802 whole entry, looked up): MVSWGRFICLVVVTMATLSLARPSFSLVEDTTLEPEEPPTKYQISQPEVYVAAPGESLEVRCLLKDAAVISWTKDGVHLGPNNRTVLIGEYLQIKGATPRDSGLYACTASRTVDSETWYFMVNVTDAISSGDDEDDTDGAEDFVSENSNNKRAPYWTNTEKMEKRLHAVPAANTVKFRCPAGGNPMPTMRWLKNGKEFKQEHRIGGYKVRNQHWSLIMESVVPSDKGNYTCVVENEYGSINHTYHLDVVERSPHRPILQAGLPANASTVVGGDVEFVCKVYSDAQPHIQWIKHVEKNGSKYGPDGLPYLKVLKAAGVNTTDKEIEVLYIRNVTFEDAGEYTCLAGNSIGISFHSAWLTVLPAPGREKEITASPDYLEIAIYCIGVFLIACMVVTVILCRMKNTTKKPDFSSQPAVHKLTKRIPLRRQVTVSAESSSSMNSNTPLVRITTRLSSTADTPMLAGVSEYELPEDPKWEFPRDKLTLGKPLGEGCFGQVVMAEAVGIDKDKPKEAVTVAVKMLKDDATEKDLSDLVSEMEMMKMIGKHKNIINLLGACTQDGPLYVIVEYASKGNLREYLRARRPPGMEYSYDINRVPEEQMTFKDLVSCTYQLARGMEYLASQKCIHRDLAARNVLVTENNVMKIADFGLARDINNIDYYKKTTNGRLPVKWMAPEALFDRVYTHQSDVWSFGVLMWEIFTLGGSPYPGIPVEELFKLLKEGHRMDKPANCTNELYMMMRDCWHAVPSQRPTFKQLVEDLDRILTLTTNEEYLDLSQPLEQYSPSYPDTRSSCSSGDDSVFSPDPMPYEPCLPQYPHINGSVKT

Variant	effect of a mutation on the interaction
C231S	disrupting interaction
D199A;C231S	disrupting interaction

Variants of: B1
Conditions: with fgfr4_human FGFR4, P22455
Target sequence in this assay (P22455 whole entry, looked up): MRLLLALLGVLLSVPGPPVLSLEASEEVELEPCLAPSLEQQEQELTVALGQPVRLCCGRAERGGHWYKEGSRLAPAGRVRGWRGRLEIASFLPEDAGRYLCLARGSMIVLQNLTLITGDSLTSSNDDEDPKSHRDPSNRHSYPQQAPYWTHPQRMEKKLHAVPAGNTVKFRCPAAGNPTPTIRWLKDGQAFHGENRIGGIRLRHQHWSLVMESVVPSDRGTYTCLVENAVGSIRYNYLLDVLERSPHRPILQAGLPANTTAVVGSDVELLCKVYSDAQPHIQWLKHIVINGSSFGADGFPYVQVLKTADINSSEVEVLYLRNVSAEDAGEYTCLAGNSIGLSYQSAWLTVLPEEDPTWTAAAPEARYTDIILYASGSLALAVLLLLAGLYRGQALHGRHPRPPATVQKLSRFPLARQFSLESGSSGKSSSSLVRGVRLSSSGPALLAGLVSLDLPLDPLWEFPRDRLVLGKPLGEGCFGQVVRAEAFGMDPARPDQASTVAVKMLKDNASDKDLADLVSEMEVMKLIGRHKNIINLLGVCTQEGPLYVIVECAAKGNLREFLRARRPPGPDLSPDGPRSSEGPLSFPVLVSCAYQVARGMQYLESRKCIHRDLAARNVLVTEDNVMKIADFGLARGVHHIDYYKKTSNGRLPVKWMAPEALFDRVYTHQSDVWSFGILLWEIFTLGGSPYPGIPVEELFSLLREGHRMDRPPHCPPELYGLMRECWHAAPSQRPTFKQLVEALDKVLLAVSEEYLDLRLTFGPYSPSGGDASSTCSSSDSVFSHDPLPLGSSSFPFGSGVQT

Variant	effect of a mutation on the interaction
C231S	increasing interaction

Variants of: B1
Conditions: with vgfr2_human KDR
Target sequence in this assay (P35968 whole entry): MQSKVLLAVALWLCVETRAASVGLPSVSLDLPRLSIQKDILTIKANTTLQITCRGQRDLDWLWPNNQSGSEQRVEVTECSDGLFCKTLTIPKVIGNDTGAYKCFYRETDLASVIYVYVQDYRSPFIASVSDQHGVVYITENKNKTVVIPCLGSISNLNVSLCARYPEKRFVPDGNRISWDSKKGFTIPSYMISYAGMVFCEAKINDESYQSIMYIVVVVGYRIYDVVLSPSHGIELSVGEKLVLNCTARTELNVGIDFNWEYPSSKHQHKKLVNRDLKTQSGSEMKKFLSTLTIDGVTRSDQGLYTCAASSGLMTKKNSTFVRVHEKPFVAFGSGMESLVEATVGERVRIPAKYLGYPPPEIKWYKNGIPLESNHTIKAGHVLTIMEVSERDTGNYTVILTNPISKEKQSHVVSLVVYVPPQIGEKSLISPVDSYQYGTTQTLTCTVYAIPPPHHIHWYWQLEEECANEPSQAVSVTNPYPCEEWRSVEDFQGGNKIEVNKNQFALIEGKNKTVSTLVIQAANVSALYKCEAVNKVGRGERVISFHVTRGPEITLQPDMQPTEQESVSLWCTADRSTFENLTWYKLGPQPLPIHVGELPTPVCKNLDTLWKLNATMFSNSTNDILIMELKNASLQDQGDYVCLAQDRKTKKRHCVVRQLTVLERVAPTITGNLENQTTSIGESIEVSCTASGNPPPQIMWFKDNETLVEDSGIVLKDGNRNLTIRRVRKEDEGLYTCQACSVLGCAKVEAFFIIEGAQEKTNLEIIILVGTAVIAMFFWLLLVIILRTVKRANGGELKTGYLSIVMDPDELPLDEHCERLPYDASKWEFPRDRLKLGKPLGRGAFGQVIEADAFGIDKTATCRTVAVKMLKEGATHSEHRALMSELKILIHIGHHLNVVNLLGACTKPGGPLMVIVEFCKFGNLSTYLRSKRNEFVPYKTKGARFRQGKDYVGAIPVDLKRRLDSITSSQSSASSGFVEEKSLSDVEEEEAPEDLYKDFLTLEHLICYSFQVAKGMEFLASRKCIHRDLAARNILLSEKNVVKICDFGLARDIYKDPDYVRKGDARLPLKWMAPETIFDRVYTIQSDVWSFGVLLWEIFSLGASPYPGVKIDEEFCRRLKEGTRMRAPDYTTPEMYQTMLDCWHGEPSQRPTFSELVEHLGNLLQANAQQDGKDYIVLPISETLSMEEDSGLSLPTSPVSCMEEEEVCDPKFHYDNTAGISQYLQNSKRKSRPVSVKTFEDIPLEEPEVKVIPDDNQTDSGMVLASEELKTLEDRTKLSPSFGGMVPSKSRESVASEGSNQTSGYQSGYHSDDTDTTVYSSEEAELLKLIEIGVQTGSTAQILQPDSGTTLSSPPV

Variant	effect of a mutation on the interaction
C231S	with no effect
D199A;C231S	with no effect

Variants of: B1
Conditions: with igf1r_human IGF1R
Remark: another data set of the same source
Target sequence in this assay (P08069 whole entry, looked up): as the sequence (P08069 whole entry, looked up) above

Variant	effect of a mutation on the interaction
C231S	increasing interaction
D199A;C231S	disrupting interaction

Variants of: B2
Conditions: with ptn7_human PTPN7, P35236

Variant	effect of a mutation on the interaction
D843N	increasing interaction

Variants of: B3
Conditions: with erbb4_human ERBB4, Q15303

Variant	effect of a mutation on the interaction
C588S	with no effect
D554A;C588S	with no effect

Variants of: B3
Conditions: with ret_human RET

Variant	effect of a mutation on the interaction
C588S	with no effect
D554A;C588S	with no effect

Variants of: B3
Conditions: with igf1r_human IGF1R
Target sequence in this assay (P08069 whole entry, looked up): as above

Variant	effect of a mutation on the interaction
C588S	decreasing interaction
D554A;C588S	decreasing interaction

Variants of: B3
Conditions: with ret_human RET
Remark: another data set of the same source

Variant	effect of a mutation on the interaction
C588S	disrupting interaction
Y249F;D554A;C588S	disrupting interaction
Y249F	increasing interaction
D554A;C588S	disrupting interaction

Variants of: B3
Conditions: with ron_mouse Mst1r, Q62190

Variant	effect of a mutation on the interaction
C588S	disrupting interaction
Y249F	increasing interaction
D554A;C588S	disrupting interaction

Variants of: B3
Conditions: with ntrk1_human NTRK1, P04629

Variant	effect of a mutation on the interaction
C588S	with no effect
D554A;C588S	with no effect

Variants of: B3
Conditions: with tie2_human TEK

Variant	effect of a mutation on the interaction
C588S	decreasing interaction
D554A;C588S	decreasing interaction

Variants of: B3
Conditions: with ron_mouse Mst1r

Variant	effect of a mutation on the interaction
C588S	increasing interaction
D554A;C588S	increasing interaction

Variants of: B3
Conditions: with fgfr2_human FGFR2, P21802
Target sequence in this assay (P21802 whole entry, looked up): as the sequence (P21802 whole entry, looked up) above

Variant	effect of a mutation on the interaction
C588S	disrupting interaction
D554A;C588S	decreasing interaction

Variants of: B3
Conditions: with fgfr4_human FGFR4, P22455
Target sequence in this assay (P22455 whole entry, looked up): as the sequence (P22455 whole entry, looked up) above

Variant	effect of a mutation on the interaction
C588S	decreasing interaction
D554A;C588S	decreasing interaction

Variants of: B3
Conditions: with vgfr2_human KDR
Target sequence in this assay (P35968 whole entry): as the sequence (P35968 whole entry) above

Variant	effect of a mutation on the interaction
C588S	with no effect
D554A;C588S	with no effect

Variants of: B3
Conditions: with igf1r_human IGF1R
Remark: another data set of the same source
Target sequence in this assay (P08069 whole entry, looked up): as the sequence (P08069 whole entry, looked up) above

Variant	effect of a mutation on the interaction
C588S	with no effect
D554A;C588S	with no effect

Variants of: B4
Conditions: with erbb4_human ERBB4, Q15303

Variant	effect of a mutation on the interaction
C291S	with no effect
D257A;C291S	with no effect

Variants of: B4
Conditions: with igf1r_human IGF1R
Target sequence in this assay (P08069 whole entry, looked up): as above

Variant	effect of a mutation on the interaction
C291S	with no effect
D257A;C291S	with no effect

Variants of: B4
Conditions: with igf1r_human IGF1R
Remark: another data set of the same source
Target sequence in this assay (P08069 whole entry, looked up): as above

Variant	effect of a mutation on the interaction
C291S	disrupting interaction
D257A;C291S	increasing interaction

Variants of: B5
Conditions: with ptn12_human PTPN12, Q05209

Variant	effect of a mutation on the interaction
D843N	with no effect

Variants of: B5
Conditions: with ptn12_human PTPN12, Q05209
Remark: another data set of the same source

Variant	effect of a mutation on the interaction
D843N	increasing interaction

Variants of: B6
Conditions: with ptprr_human PTPRR, Q15256

Variant	effect of a mutation on the interaction
D843N	with no effect

Variants of: B7
Conditions: with ptprr_human PTPRR, Q15256

Variant	effect of a mutation on the interaction
K1091A	decreasing interaction

Variants of: B8
Conditions: with ptn6_human PTPN6, P29350

Variant	effect of a mutation on the interaction
D843N	with no effect
